Paper PMC3776556, “Crystal structures of the CPAP/STIL complex reveal its role in centriole assembly and human microcephaly” (eLife, 2013)

Legend:
human STIL = settings: ref Tang et al., 2011; cited from earlier work
Source text: Of particular interest in this regard is the putative centriolar CPAP–STIL complex, as mutations in both components result in MCPH ([Leal et al., 2003]; [Bond et al., 2005]; [Gul et al., 2006]; [Darvish et al., 2010]). CPAP and STIL are strictly required for centriole assembly: STIL at a very early stage ([Stevens et al., 2010b]; [Tang et al., 2011]; [Kitagawa et al., 2011a]; [Arquint et al., 2012]; [Vulprecht et al., 2012]) and CPAP slightly later ([Kirkham et al., 2003]; [Leidel and Gonczy, 2003]; [Basto et al., 2006]; [Kleylein-Sohn et al., 2007]; [Dobbelaere et al., 2008]; [Vulprecht et al ...

[1] = test system: centrioles in human cells; settings: ref Kitagawa et al., 2011a; cited from earlier work
Source text: The structures we report here rev ...

[2] = test system: SAS-5 N-terminal domain (aa 1–202); test: Ni-NTA pull-down of 35S-labelled SAS-4 fragments by SAS-5; type: binding, C. elegans; settings: 25 mM HEPES, 100 mM NaCl, pH 7.4, 4°C, 30 min; SAS-5-6xHis bait on Ni-NTA
Protocol: SAS-4 constructs were cloned into a pET21a vector for in vitro transcription/translation. Proteins were expressed using the T7 TNT Quick Coupled Transcription/Translation System (Promega, Fitchburg, WI) with ^35S-Met labelling.
SAS-5 fragments were cloned into a pRSET-A vector with a C-terminal 6xHis tag. Proteins were expressed in E. coli Rosetta2(DE3) cells and purified on Ni-NTA agarose (Qiagen) using standard protocols. For pull-down experiments, proteins were dialysed into 25 mM HEPES, 100 mM NaCl, 20 mM imidazole, 1 mM DTT, 10% sucrose, 0.02% Tween-20, pH 7.4.
SAS-5 fragments were pre-incubated with 20 μl Ni-NTA beads for 45 min at 4°C. 10 μl of the SAS-4 IVTT product was added to the beads with 190 μl buffer and incubated at 4°C for 30 min. The beads were washed with 3 × 200 μl buffer and resuspended in 100 μl SDS-PAGE sample buffer. Samples were run on 10% SDS-PAGE gels and either stained with Coomassie or dried and exposed to a phosphor screen overnight. Phosphor screens were analysed on a Personal Molecular Imager System (Bio-Rad, Hercules, CA).

Row | Molecule | yeast-two-hybrid interaction with STIL (human STIL) | centriole duplication [1] | centriole overgrowth on overexpression [1] | localisation of CPAP to the centriole [1] | interaction with SAS-5 in pull-down [2]
1 | E1235V: human CPAP with MCPH mutation E1235V (cited studies) (protein, UniProt Q9HC77 1-1338, looked up, variant E1235V) Centrosomal P4.1-associated …: MFLMPTSSELNSGQNFLTQWMTNPSRAGVILNRGFPILEADKEKRAAVDISTSFPIKGTHFSDSFSFINEEDSLLEEQKLESNNPYKPQSDKSETHTAFPCIKKGPQVAACHSAPGHQEENKNDFIPDLASEFKEGAYKDPLFKKLEQLKEVQQKKQEQLKRQQLEQLQRLMEEQEKLLTMVSGQCTLPGLSLLPDDQSQKHRSPGNTTTGERATCCFPSYVYPDPTQEETYPSNILSHEQSNFCRTAHGDFVLTSKRASPNLFSEAQYQEAPVEKNNLKEENRNHPTGESILCWEKVTEQIQEANDKNLQKHDDSSEVANIEERPIKAAIGERKQTFEDYLEEQIQLEEQELKQKQLKEAEGPLPIKAKPKQPFLKRGEGLARFTNAKSKFQKGKESKLVTNQSTSEDQPLFKMDRQQLQRKTALKNKELCADNPILKKDSKARTKSGSVTLSQKPKMLKCSNRKSLSPSGLKIQTGKKCDGQFRDQIKFENKVTSNNKENVTECPKPCDTGCTGWNKTQGKDRLPLSTGPASRLAAKSPIRETMKESESSLDVSLQKKLETWEREKEKENLELDEFLFLEQAADEISFSSNSSFVLKILERDQQICKGHRMSSTPVKAVPQKTNPADPISHCNRSEDLDHTAREKESECEVAPKQLHSLSSADELREQPCKIRKAVQKSTSENQTEWNARDDEGVPNSDSSTDSEEQLDVTIKPSTEDRERGISSREDSPQVCDDKGPFKDTRTQEDKRRDVDLDLSDKDYSSDESIMESIKHKVSEPSRSSSLSLSKMDFDDERTWTDLEENLCNHDVVLGNESTYGTPQTCYPNNEIGILDKTIKRKIAPVKRGEDLSKSRRSRSPPTSELMMKFFPSLKPKPKSDSHLGNELKLNISQDQPPGDNARSQVLREKIIELETEIEKFKAENASLAKLRIERESALEKLRKEIADFEQQKAKELARIEEFKKEEMRKLQKERKVFEKYTTAARTFPDKKEREEIQTLKQQIADLREDLKRKETKWSSTHSRLRSQIQMLVRENTDLREEIKVMERFRLDAWKRAEAIESSLEVEKKDKLANTSVRFQNSQISSGTQVEKYKKNYLPMQGNPPRRSKSAPPRDLGNLDKGQAASPREPLEPLNFPDPEYKEEEEDQDIQGEISHPDGKVEKVYKNGCRVILFPNGTRKEVSADGKTITVTFFNGDVKQVMPDQRVIYYYAAAQTTHTTYPEGLEVLHFSSGQIVKHYPDGRKEITFPDQTVKNLFPDGQEESIFPDGTIVRVQRDGNKLIEFNNGQRELHTAQFKRREYPDGTVKTVYANGHQETKYRSGRIRVKDKEGNVLMDTEL | appeared to weaken this yeast-two-hybrid interaction | centriole duplication was compromised by both mutations | able to promote centriole overgrowth to a greater extent than the WT protein | did not effect the localisation of CPAP to the centriole | 
2 | full-length SAS-4: in vitro translated full-length C. elegans SAS-4, 35S-labelled (protein, ^35S-Met labelling) MASDENIGADGEQKPSRPFLRKGQGTARFRMPRNNKTSAGAPPTSELSSASSPSINVPRFSLSNALPNSARTVDSGISNEDETRPPTTASLPMDQPSLSSSPENRLNPAPSVAEEHGHSGQHAEEEEDNDTDEVSAMPSFVPDEPSTLVNSDHELSDDALKYKNAAAEFKAFERRMDSMRSASTITTSLATPSSCAPSNSSEPPTRSTPIMNDLGVGPNNHNWPSSMQELSGISLETPQARPLGSNRINQLVRSEAQTGISLLQHHERPTVTAPLRRNDMMNSSRQNPQNGNVQDENRPEHVYDQPIHVPGSSLDRQKLEIEIRRHRNLNIQLRDTIAHLDYAEESVHTTKRQLEEKISEVNNFKKELIEEFKKCKKGVEEEFEKKFEKIKEDYDELYEKLKRDQRDLERDQKILKKGTGERNKEFTETIATLRDKLRASETKNAQYRQDIRVRDEKLKKKDEEIEKLQKDGNRLKSTLQTLEKRVKQLRTEKERDDKEKEMFAKVAMNRKTSNPVPPVLNQSVPISITSNGPSRHPSSSSLTTFRKPSTSNRERGVSWADEPNEQSLEAVPQEFLMMPVKEMPGKFGKCTIYRDSLGETSKVTDTIANGLLFEYSNGDLRWVNRQNAVNIYISAVDKTVRIDLPTYNISIIHTFQRQVEVLRPGNNITLISIKRREVRTDLIYQNGMYKTEIFNRDGRYVTKDFSNQEVSRKYNPGTHTYRDNQCRYVLVTDYNDFELVEPEFRLRWYQGDPTGLNNQYILKIIGRPECSEKTLRLEVNLSTCEGTLETAEMIGDKRRKTTLFQWKK |  |  |  |  | interacted specifically with the N-terminal domain (aa 1–202) of SAS-5
